These results are taken from patent US20230159613A1 (published 2023).

Assay [1] has as its target T1, KRAS (short peptide without mutation) peptide on HLA-A*11:01 (human).
T1 peptide: VVVGAGGVGK
Put plainly: cytokine release.

The target of assay [2] is T2, other antigen short peptide (source not named) peptide on HLA-A*11:01 (human).
T2 peptide: SSCSSCPLSK
Put plainly: cytokine release.

The target in assay [3] is T3, KRAS G12V peptide on HLA-A*11:01 (human).
T3 peptide: VVVGAVGVGK
Put plainly: cytokine release.

The target in assay [4] is T4, KRAS G12D peptide on HLA-A*11:01 (human).
T4 peptide: VVVGADGVGK
Put plainly: cytokine release.

Assay [5] deals with T5, KRAS (short peptide without mutation) peptide on HLA-A*11:01 (human).
T5 peptide: VVGAGGVGK
Put plainly: cytokine release.

In assay [6] the target is T6, KRAS G12D peptide on HLA-A*11:01 (human).
T6 peptide: VVGADGVGK
Put plainly: cytokine release.

In assay [7] the target is T7, KRAS G12V peptide on HLA-A*11:01 (human).
T7 peptide: VVGAVGVGK
Put plainly: Kd or kinetics.

Where a chain is given by its changes, count along the chain named. Names and notes keep the numbering of the source.

B1: KRAS G12V antigen short peptide-specific TCR of SEQ ID NOs 1 and 5 (TCR, V domains shown)
Valpha: QKEVEQNSGPLSVPEGAIASLNCTYSDRVSQSFFWYRQYSGKSPELIMSIYSNGDKEDGRFTAQLNKASQYVSLLIRDSQPSDSATYLCASLKGNNDMRFGAGTRLTVKP
Vbeta: GAGVSQSPRYKVAKRGQDVALRCDPISGHVSLFWYQQALGQGPEFLTYFQNEAQLDKSGLPSDRFFAERPEGSVSTLKIQRTQQEDSAVYLCASSSSRWEQQFFGPGTRLTVL
For B1, the binding result in assay [1] is listed as “no recognition”; in assay [2] it was “no recognition”; in assay [3], “recognises”; in assay [4] it was “no recognition”; in assay [5], “no recognition”; in assay [6], “no recognition”. For the same molecule, the binding result in assay [7] was “recognises”.

B2: KRAS G12V antigen short peptide-specific soluble single chain TCR of SEQ ID NO 30 (TCR, V domains shown)
Valpha: B1 Valpha with A17E, I18N, A19V, L21I, L75E, S79V
Vbeta: B1 Vbeta with K11L, V12S, A13V, A20T, L39P, F66N, T82V, Q84P, L113D
B2: in assay [7], the binding result is “recognises”.
